B1: paxillin fragment residues G139-K277 (PaxLD2-LD4) (domain or fragment)
chain: MGSNLSELDRLLLELNAVQHNPPGFPADEANSSPPLPGALSPLYGVPETNSPLGGKAGPLTKEKPKRNGGRGLEDVRPSVESLLDELESSVPSPVPAITVNQGEMSSPQRVTSTQQQTRISASSATRELDELMASLSDFK
notes: initiation Met introduced before G139; paxillin residues G139-K277, holding the LD2, LD3 and LD4 repeats; Used 15N-labelled or unlabelled; also called recombinant paxillin (residues G139-K277 encompassing LD2-LD4); source: E. coli BL21(DE3), purified (NTA beads, HPLC)
B2: integrin α4 cytosolic tail (Lys968-Asp999) (domain or fragment)
chain: KAGFFKRQYKSILQEENRRDSWSYINSKSNDD
notes: Used 15N-labelled or unlabelled in the HSQC experiments; also called α4 CT; full-length α4 CT; source: E. coli BL21(DE3), KSI fusion from inclusion bodies, purified (Ni-NTA, cyanogen bromide cleavage, HPLC); not shown: His6, N-terminal, cleaved; ketosteroid isomerase (KSI), N-terminal, cleaved

Legend:
Details in all cases: both partners purified
[1] = target: B2; experiment: NMR titration; 15N-1H HSQC of 15N-labelled α4 CT without and with unlabelled synthetic LD-containing peptides, ratio 1:4 (α4 CT:peptides)
[2] = target: B2; experiment: NMR titration; 15N-1H HSQC of 15N-labelled α4 CT (100 µM) without and with unlabelled PaxLD2-LD4, molar ratios 1:1 and 1:2; 10 mM sodium phosphate, pH 6.5, 298 K
[3] = target: B1; experiment: NMR titration; 15N-1H HSQC of 15N-labelled PaxLD2-LD4 (200 µM) without and with unlabelled α4 CT, molar ratios 1:1 and 1:2; 10 mM sodium phosphate, pH 6.5, 298 K

Binder	binding result [1]	other results
ATRELDELMASLSDFKFMAQ (paxillin stretch holding the LD4 repeat; runs four residues (FMAQ) beyond K277, the end of PaxLD2-LD4; also called peptide-containing LD4; source: synthetic peptide, bought: GL Biochem (Shanghai), further purified by reverse phase HPLC) [paxillin LD4-containing peptide]	binds	–
VRPSVESLLDELESSVPSPV (paxillin stretch holding the LD3 repeat; also called peptide-containing LD3; source: synthetic peptide, bought: GL Biochem (Shanghai), further purified by reverse phase HPLC) [paxillin LD3-containing peptide]	binds	–
B1	–	binding result [2]: binds
B2	–	binding result [3]: binds

From publication PMC3561355, “NMR Structure of Integrin α4 Cytosolic Tail and Its Interactions with Paxillin” (PLoS ONE, 2013)
